# From PMC6488296, “Optogenetic control shows that kinetic proofreading regulates the activity of the T cell receptor” (eLife, 2019)
# T1: PhyB_(1-651)-Avitag-His6 (A. thaliana, UniProt P14713 1-651, phycocyanobilin chromophore; biotin on the Avitag)
# T1 construct: phytochrome B (PhyB), Arabidopsis thaliana, the light-responsive N-terminal 651 amino acids; 740 nm light puts them in the OFF state; also called PhyB(660); PhyB(740); source: E. coli BL21(DE3) co-transformed with p171 (phycocyanobilin production), 50 uM biotin in the medium, purified (Ni-NTA); not shown: Avitag, C-terminal, kept; His6, C-terminal, kept
# T1 sequence (looked up): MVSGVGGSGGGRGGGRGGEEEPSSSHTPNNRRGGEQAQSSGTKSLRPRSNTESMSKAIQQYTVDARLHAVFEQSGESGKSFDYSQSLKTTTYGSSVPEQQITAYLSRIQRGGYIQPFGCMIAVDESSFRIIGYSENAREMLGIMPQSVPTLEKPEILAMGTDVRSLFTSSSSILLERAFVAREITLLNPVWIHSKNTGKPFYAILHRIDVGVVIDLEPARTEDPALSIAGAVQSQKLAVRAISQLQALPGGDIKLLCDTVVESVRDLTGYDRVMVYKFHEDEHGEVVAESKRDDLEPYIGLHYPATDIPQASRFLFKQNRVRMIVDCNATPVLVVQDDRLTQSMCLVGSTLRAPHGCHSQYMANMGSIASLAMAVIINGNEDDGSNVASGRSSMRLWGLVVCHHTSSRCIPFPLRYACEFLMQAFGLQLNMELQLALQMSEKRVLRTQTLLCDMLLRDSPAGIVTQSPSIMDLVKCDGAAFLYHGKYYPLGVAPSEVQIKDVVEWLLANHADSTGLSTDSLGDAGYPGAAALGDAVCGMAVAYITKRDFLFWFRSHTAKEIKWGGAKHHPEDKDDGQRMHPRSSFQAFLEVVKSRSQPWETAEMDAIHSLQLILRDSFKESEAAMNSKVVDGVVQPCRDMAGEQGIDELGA
# B1: MBP-PIF6_(1-100)-His6 (domain or fragment, A. thaliana, UniProt Q8L5W7 1-100, looked up)
# chain: MMFLPTDYCCRLSDQEYMELVFENGQILAKGQRSNVSLHNQRTKSIMDLYEAEYNEDFMKSIIHGGGGAITNLGDTQVVPQSHVAAAHETNMLESNKHVD
# notes: also called MBP-PIF(wt); pOSY061; source: E. coli BL21(DE3), purified (Ni-NTA); not shown: His6, C-terminal, kept
# Target: T1, PhyB_(1-651)-Avitag-His6
# Experiment: SEC; 200 ug PhyB illuminated with 660 nm light, added in a 2:1 molar ratio to MBP-PIF (limiting MBP-PIF); 60 min at room temperature; Superdex 200 10/300 GL; PhyB detected at 671 nm
# Settings: both partners purified
binder,measurement,value
B1,binding result,binds
